Data taken from patent US20030235860A1, “Interactions between AR, ER, TR2, and TR4” (priority 1999, published 2003).

Legend:
MCF-7-TR4 cells = assay: MCF-7 cells growth assay (cell counting); format: cell-based; settings: MCF-7-TR4 cells (E2 also in MCF-7-pBIG); 10 nM E2; Dox
Procedure: MCF-7-TR4 and MCF-7-pBIG cells, which were deprived of estrogen by culturing in phenol-free DMEM medium supplement with 10% charcol-stripped FBS for 4 days, were plated at 10^4 cells/well into 24-well plate. […] Cells were trypsinized at the specified time points and counted with a hemocytometer to determine cell density per sample.

cyclin D1 = assay: Western blot of cyclin D1 in MCF-7-TR4 cells; format: cell-based; settings: 10 nM E2, Dox
Procedure: MCF-7-TR4 or MCF-7-pBIG cells were cultured in DMEM containing 10% charcoal dextran-treated FBS for 3 days and then 1×10^6 cells were seeded on 100-mm dishes. […] The lysate protein amount was quantitated by Bradford assay (Bio-Rad, Hercules, Calif.) with bovine serum albumin as a reference standard. One hundred μg protein was loaded and after electrophoresis on 10% SDS-PAGE was transferred onto Immobulin (Milipore, Bedford, Mass.). The membrane was blotted with anti-cyclin D1 rabbit polyclonal Ab (H-295) (Santa Cruz). Alkaline phosphatase conjugated secondary Ab was used.

PR = assay: Endogenous PR expression in T47D cells (Northern / Western); format: cell-based, human; settings: T47D cells; 10 nM E2, 24 h
Procedure: The method was used as previously described, Lee & Chang. (1996) J. Biol. Chem. 271. 10405-10412, with some modifications. Briefly. 5 μg of pCMV-TR2 was transiently transfected into T47D cells and lysed in RIPA buffer (10 mM sodium phosphate, pH 7.0. 150 mM NaCL, 2 mM EDT A. 1% (w/v) Nonidet P-40, 0.1% (w/v) SDS. 1% (w/v) sodium deoxycholate) with freshly adding proteinase inhibitors. The soluble protein was quantified using the Bio-Rad Protein Assay reagent (Bio-Rad Laboratories) and 50 μg soluble proteins were loaded onto SDS/10% PAGE and then transferred to Immobion-P transfer membrane (Millipore). After the blocking reaction overnight, the membrane was incubated with […] anti-PR polyclonal antibody (H-190. Santa Cruz) in PBS(−) containing 0.1% Skim milk for 2 h at room temperature. The membrane was washed and then incubated in 15 μCi 125I] of protein-A (DuPont NEN)/30 ml of PBS(−) containing 0.1% Skim milk for 1 h at room temperature. The western blots were autoradiographed and quantitated by using Phosphorlmager.
RNA isolation and Northern blot analysis were performed as previously described. Young, et al., J. Biol. Chem. 273,20877-20885 (1998).
Next it was determined if TR2 could repress the ER endogenous target gene expression. PR was chosen because it is well studied as an E2-ER target gene in T47D cells. Misrahi et al., Biochem. Biophys. Res. Commun. 143, 740-748 (1987). […] Cells were then used for RNA isolation (Northern blot analysis) and lysate protein extraction (Western blot analysis). For RNA analysis, total RNAs were isolated, and Northern blots were performed using [32P] labeled PR cDNA probes. The membrane was autoradiographed. For Protein Western blot analysis, cells lysates were prepared and PR proteins were visualized by radioimmunoblot. The membrane was autoradiographed to Phosphorimager and was quantitated by ImageQuant software.

MCF7-TR2 cells = assay: Cell cycle profile by flow cytometry, MCF7-TR2 cells; format: cell-based; settings: 3 days, E2, or E2 with doxycycline-induced TR2
Procedure: (A) Growth assays were performed by MTT method as instructed by manufacturer (Sigma). 5×10^3 MCF7-pBIG and MCF7-TR2 cells were seeded in 24-well plates and incubated in RPMI with 10% CD-FCS for 48 h. […] After 3- and 5-day treatment, cells were harvested for MTT assay. Data represents the relative folds of MTT O.D.570 values at day 5 divided by that at day 3. […] Cells were then trypsinized and fixed overnight in 70% Ethanol. After cells were incubated with 1 mg/ml RNase A (Sigma) and propidium iodide (Roche Molecular Biochemicals), the DNA contents of cells were measured by a flow cytometry. (C) Percentage of growth suppression by TR2. MCF7-TR2 cells were seeded at 5×10^3 cells per well in 24-well plates. […] The treatments were changed every two days. The indices of cell growth were determined by MTT assay. The MTT values from cells without doxycycline were set as 100% in each kind of treatment. Values are represented by the percentage of growth suppression from cells with doxycycline to that without doxycycline.

[1] = molecular target: T1, estrogen receptor (ER), full-length (human, UniProt P03372 1-595); assay: GST pull-down, GST-TR2 fragment on beads, [35S]-ER
T1 construct: 35S-labeled when in vitro translated for the pull-downs; endogenous in MCF7 cells for the co-immunoprecipitation; also called ERα; pSG5-ER
T1 sequence: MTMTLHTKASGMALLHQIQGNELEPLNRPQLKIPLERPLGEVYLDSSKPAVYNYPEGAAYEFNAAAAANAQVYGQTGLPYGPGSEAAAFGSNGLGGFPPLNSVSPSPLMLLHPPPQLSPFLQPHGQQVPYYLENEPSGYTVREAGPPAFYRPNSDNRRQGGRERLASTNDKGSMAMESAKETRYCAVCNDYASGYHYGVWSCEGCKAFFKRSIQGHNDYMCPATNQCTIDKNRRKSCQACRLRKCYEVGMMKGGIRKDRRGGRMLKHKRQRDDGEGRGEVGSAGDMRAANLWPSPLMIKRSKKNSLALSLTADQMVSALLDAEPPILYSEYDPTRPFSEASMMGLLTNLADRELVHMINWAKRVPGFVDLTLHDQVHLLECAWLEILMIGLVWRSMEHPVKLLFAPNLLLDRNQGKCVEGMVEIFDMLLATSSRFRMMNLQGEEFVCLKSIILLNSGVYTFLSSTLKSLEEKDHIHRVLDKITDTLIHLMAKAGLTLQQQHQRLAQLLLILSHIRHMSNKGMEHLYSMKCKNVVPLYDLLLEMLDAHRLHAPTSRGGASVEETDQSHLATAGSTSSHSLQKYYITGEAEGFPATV

[2] = molecular target: T2, TR2 orphan receptor (full length, 603 aa) (UniProt P13056 SEQ:1-603); assay: EMSA; no TR2-ERE band; settings: chain copies: 2; label: 32P
T2 chain: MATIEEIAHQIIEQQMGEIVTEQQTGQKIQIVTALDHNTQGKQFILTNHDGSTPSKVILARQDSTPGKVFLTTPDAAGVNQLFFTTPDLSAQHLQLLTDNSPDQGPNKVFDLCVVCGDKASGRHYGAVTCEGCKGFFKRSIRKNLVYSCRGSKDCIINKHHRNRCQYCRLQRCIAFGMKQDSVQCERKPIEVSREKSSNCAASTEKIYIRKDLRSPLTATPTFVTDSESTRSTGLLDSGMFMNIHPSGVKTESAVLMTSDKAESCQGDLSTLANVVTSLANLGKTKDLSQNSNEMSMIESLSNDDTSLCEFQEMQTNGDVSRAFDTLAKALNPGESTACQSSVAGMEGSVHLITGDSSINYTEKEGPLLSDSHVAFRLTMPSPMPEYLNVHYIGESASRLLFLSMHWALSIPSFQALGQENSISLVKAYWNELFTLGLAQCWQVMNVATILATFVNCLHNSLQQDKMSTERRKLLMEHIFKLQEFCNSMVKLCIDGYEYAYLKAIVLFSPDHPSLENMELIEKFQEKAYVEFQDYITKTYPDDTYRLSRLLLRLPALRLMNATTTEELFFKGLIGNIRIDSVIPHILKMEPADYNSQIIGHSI

[3] = molecular target: T3, Estrogen receptor alpha (ER) (Homo sapiens, UniProt P03372 SEQ:1-595); assay: EMSA; with or without E2; supershifted by C-314; competed by 100-fold cold ERE; decreased by added TR2; settings: chain copies: 2; label: 32P
T3 chain: T1 sequence

GST-TR4 fusion protein = molecular target: T4, GST-TR4 fusion protein (human, UniProt P49116 1-596); assay: GST pull-down, GST-TR4 on beads, 35S-labeled RXRα
T4 construct: also called pGEX-3X-TR4
T4 sequence: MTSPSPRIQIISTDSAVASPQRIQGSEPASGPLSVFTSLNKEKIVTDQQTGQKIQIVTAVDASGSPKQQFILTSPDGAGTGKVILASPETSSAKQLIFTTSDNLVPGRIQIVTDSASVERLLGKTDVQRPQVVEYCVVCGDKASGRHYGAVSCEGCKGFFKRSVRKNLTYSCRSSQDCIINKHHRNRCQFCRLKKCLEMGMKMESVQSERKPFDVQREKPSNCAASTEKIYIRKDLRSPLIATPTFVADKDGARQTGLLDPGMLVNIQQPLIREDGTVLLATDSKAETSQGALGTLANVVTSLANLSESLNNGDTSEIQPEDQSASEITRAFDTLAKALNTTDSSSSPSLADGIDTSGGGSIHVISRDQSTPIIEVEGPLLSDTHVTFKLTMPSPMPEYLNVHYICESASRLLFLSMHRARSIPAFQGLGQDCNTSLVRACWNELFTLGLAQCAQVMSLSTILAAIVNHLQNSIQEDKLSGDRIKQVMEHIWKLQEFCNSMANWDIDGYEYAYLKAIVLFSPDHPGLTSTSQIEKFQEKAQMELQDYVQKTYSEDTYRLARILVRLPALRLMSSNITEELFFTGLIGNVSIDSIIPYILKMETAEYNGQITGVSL

[4] = molecular target: T5, TR4 orphan receptor (TR4), full-length (human, UniProt P49116 1-596); assay: Table 4, summary of interactions tested; assay not given
T5 construct: Full-length TR4; 35S-labeled when in vitro translated, expressed from plasmids in the cell assays; also called pCMX-TR4; pCMV-TR4
T5 sequence: T4 sequence

[5] = molecular target: T6, TR4 LBD (row label of Table 4) (human, UniProt P49116 205-596); assay: as above
T6 construct: not shown: Fusion partner: GST in the pull-down with ER, GAL4-DBD in the hybrid assays with AR
T6 sequence: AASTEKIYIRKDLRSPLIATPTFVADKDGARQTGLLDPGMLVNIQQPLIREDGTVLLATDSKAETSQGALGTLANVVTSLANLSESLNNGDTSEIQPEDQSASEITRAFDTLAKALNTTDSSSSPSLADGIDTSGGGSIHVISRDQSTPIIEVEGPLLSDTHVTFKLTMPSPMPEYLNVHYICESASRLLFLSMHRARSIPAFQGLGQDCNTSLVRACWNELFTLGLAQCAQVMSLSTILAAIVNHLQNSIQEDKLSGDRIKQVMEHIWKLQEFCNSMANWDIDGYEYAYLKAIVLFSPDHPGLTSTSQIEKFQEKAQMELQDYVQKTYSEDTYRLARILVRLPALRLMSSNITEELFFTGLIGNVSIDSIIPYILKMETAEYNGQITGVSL

For `C[C@]12CC[C@@H]3c4ccc(O)cc4CC[C@H]3[C@@H]1CC[C@@H]2O` [E2, 17β-estradiol, reference compound], the “Cell growth (cell number)” value (MCF-7-TR4 cells) was “stimulated cell growth”, the “Cyclin D1 expression” value (cyclin D1) was “induced cyclin D1 expression” and the “Induction of PR mRNA expression” value (PR) was “about 3 fold”. For the same molecule, the “Cells in G1” value (MCF7-TR2 cells) was 37.4% and the “Cells in S” value (MCF7-TR2 cells) was 23.6%.

B1: GST-TR2-#1 (N-terminus, aa 1-112 of TR2) (other)
chain: MATIEEIAHQIIEQQMGEIVTEQQTGQKIQIVTALDHNTQGKQFILTNHDGSTPSKVILARQDSTPGKVFLTTPDAAGVNQLFFTTPDLSAQHLQLLTDNSPDQGPNKVFDL
notes: also called pGEX-KG-TR2-#1; not shown: GST carrier of pGEX-KG and its linker
B1: no binding [1].

B2: complement C3 ERE (dsDNA)
DNA 1: AGGTGGCCCTGACCC
DNA 2: GGGTCAGGGCCACCT
B2: no binding [2]; binds [3].

B3: retinoid X receptor alpha (RXRα) (receptor, UniProt P19793 1-462, looked up)
chain: MDTKHFLPLDFSTQVNSSLTSPTGRGSMAAPSLHPSLGPGIGSPGQLHSPISTLSSPINGMGPPFSVISSPMGPHSMSVPTTPTLGFSTGSPQLSSPMNPVSSSEDIKPPLGLNGVLKVPAHPSGNMASFTKHICAICGDRSSGKHYGVYSCEGCKGFFKRTVRKDLTYTCRDNKDCLIDKRQRNRCQYCRYQKCLAMGMKREAVQEERQRGKDRNENEVESTSSANEDMPVERILEAELAVEPKTETYVEANMGLNPSSPNDPVTNICQAADKQLFTLVEWAKRIPHFSELPLDDQVILLRAGWNELLIASFSHRSIAVKDGILLATGLHVHRNSAHSAGVGAIFDRVLTELVSKMRDMQMDKTELGCLRAIVLFNPDSKGLSNPAEVEALREKVYASLEAYCKHKYPEQPGRFAKLLLRLPALRSIGLKCLEHLFFFKLIGDTPIDTFLMEMLEAPHQMT
notes: 35S-methionine-labeled, in vitro translated; also called RXRa; RXRA
B3: no binding (GST-TR4 fusion protein).

B4: ER LBD 282-595 (column label of Table 4) (receptor, not shown: large carriers)
chain: SAGDMRAANLWPSPLMIKRSKKNSLALSLTADQMVSALLDAEPPILYSEYDPTRPFSEASMMGLLTNLADRELVHMINWAKRVPGFVDLTLHDQVHLLECAWLEILMIGLVWRSMEHPVKLLFAPNLLLDRNQGKCVEGMVEIFDMLLATSSRFRMMNLQGEEFVCLKSIILLNSGVYTFLSSTLKSLEEKDHIHRVLDKITDTLIHLMAKAGLTLQQQHQRLAQLLLILSHIRHMSNKGMEHLYSMKCKNVVPLYDLLLEMLDAHRLHAPTSRGGASVEETDQSHLATAGSTSSHSLQKYYITGEAEGFPATV
B4: binds [4]; binds [5].
